Test in all cases: EMSA
One data set addresses T1, RGL2 (Col) (Arabidopsis thaliana (Col-0), UniProt Q8GXW1 1-547).
T1 sequence: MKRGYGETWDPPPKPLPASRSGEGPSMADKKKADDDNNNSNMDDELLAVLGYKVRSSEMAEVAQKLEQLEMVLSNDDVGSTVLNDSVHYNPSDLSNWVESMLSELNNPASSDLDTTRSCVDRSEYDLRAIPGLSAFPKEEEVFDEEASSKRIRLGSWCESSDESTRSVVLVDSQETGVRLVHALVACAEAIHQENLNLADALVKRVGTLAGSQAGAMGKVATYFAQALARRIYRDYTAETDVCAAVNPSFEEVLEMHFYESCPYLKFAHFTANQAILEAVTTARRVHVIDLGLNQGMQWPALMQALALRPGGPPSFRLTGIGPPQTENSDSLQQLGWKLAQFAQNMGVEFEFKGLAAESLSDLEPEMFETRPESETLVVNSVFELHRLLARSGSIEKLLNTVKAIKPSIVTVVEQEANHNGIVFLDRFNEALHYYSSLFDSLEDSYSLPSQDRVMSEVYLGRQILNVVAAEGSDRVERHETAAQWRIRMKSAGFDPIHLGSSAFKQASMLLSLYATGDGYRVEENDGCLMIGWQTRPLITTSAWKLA

Data set [1] addresses T2, DOF6 (Col-0);RGL2 (Col) (Arabidopsis thaliana …, UniProt Q9M1E6;Q8GXW1 1-245;1-547, |).
T2 sequence 1: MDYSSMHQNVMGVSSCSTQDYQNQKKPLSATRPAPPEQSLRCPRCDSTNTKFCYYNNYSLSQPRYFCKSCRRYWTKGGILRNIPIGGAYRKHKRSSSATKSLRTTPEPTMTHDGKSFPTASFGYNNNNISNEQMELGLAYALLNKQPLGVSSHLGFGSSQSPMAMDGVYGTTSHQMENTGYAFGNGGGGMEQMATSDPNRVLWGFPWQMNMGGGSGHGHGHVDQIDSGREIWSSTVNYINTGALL
T2 sequence 2: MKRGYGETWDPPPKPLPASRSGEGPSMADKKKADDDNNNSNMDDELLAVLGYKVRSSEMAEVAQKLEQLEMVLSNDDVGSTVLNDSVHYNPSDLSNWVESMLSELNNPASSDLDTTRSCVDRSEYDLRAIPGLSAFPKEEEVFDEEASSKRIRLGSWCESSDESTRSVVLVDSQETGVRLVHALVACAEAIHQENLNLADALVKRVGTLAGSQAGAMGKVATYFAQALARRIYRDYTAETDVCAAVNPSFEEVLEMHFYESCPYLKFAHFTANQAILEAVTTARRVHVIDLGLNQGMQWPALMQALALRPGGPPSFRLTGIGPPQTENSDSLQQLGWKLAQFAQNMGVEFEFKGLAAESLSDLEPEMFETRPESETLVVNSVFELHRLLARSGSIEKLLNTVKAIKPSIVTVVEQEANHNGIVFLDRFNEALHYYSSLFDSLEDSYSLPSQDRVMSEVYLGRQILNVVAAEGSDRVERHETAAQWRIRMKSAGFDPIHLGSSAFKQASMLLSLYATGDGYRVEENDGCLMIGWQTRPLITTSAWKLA

The next data set deals with T3, DOF6 (Col-0) (Arabidopsis thaliana (Col-0), UniProt Q9M1E6 1-245).
T3 sequence: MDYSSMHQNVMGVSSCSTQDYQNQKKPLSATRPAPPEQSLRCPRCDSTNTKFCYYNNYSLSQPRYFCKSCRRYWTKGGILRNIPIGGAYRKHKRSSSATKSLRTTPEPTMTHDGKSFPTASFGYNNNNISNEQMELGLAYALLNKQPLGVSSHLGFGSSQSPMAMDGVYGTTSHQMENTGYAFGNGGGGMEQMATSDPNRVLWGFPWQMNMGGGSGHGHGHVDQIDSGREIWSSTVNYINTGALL

Data set [2] concerns the target T2, DOF6 (Col-0);RGL2 (Col). The source holds these as a separate data set.

Where two headings read alike, the source gives them in different places.

B1: GA20ox3 Col probe (P8) (dsDNA)
DNA 1: TAAAAAATAAAAATGAAAAGTATCATGATA
DNA 2: TATCATGATACTTTTCATTTTTATTTTTTA
In the case of B1, the values for the binding result in the data set with RGL2 (Col), with DOF6 (Col-0);RGL2 (Col) [1] and with DOF6 (Col-0) were “no binding”, “binds” and “binds”, respectively.

B2: GA20ox3 Tib probe (dsDNA)
DNA 1: TTTAAAAATAAAATAAAAAGTATCATGATA
DNA 2: TATCATGATACTTTTTATTTTATTTTTAAA
Take B2: the binding result with DOF6 (Col-0) and with DOF6 (Col-0);RGL2 (Col) [2] was “binds” each time.
